In US20250270313A1:

Target: human Claudin 18.2 (hClaudin18.2) (human) (UniProt P56856)
Assay: flow cytometry on CHO cells overexpressing claudin18.2

- EC50: 2 µg/mL
Substance: IMAB362-FC (Fc fusion)
